Assay results taken from publication PMC11804575.

Molecular target: heat shock protein 90 (HSP90) (UniProt P07900)
Test: co-immunoprecipitation (anti-HA) with immunoblot quantification (ImageJ)
Settings: HEK293T cells; endogenous HSP90; n = 3; parent: est. 1.0; read off a plot

response (HSP90/HA-BRAF normalized to V600E): 12
Substance: BRAF^V600E (from UniProt P15056) R509H; 621APE-AAE
